Experiment [1] deals with T1, IgG-Fab prepared from anti-EGFR monoclonal antibody (Erbitux).
T1 construct: Chimeric antibody; also called Anti-EGFR antibody - Fab
Briefly: SPR Biacore 3000, Fab immobilized on CM5, peptide at 25, 100, 400 nM, 1:1 model. The protocol:
(§1) The affinity of the peptide obtained in the above-described Example 1(2) for the Fc region and Fab region of anti-RSV monoclonal antibody was evaluated using a biosensor Biacore3000 (manufactured by GE Healthcare Bioscience) utilizing surface plasmon resonance. In the present Example, the IgG-Fc or IgG-Fab obtained in the above-described Example 2(1) was immobilized on a sensor tip, and the peptide was flown on the tip to detect the interaction between the two. The IgG-Fab or IgG-Fc was immobilized on a sensor tip CM5 by amine coupling method using N-hydroxysuccinimide (NHS) and N-ethyl-N′-(3-dimethylaminopropyl)carbodiimide hydrochloride (EDC), and ethanolamine was used for blocking. All of the sensor tip and reagents for immobilization was manufactured by GE Healthcare Bioscience. The IgG-Fab solution was diluted to about 10 times using a buffer for immobilization (10 mM AcOH—AcONa, pH 4.5), and the IgG-Fab was immobilized on the sensor tip in accordance with the protocol attached to the Biacore 3000. In addition, a reference cell as negative control was also prepared by activating another flow cell on the tip with EDC/NHS and then immobilizing ethanolamine only. […] Each peptide solution was added to the sensor tip in a flow rate of 40 μL/min for 1 minute. Bonding response curves at the time of addition (association phase, 1 minute) and after the addition (dissociation phase, 1 minute) were sequentially obtained at a measurement temperature of 25° C. After each measurement, about 20 mM NaOH was added for wash.
(§2) Also, the affinity of the peptide according to the present invention (SEQ ID NO: 2) for IgG-Fab prepared from anti-EGFR monoclonal antibody (“Erbitux” sold by Bristol-Myers Squibb) and anti-TNFα monoclonal antibody (“Remicade” sold by Mitsubishi Tanabe Pharma Corporation) was evaluated.
On the technique in general: SPR reads the build-up and loss of mass on a sensor chip optically.

In experiment [2] the target is T2, IgG-Fab prepared from anti-TNFα monoclonal antibody (Remicade).
T2 construct: Chimeric antibody; also called Anti-TNFα antibody - Fab; IgG-Fab of anti-TNFα monoclonal antibody
The description is as above. The protocol: as §1, §2

For experiment [3], the target named is T3, IgG-Fc derived from anti-RSV monoclonal antibody (Palivizumab) (human, UniProt P01857-1 108-330 = IgG part, limits assumed).
T3 construct: domain: Fc region; Immobilized on a CM5 sensor tip by amine coupling; also called Anti-RSV antibody - Fc; Synagis Fc fragment
Briefly: SPR Biacore 3000, Fc immobilized on CM5, peptide flown, 25° C., pH 7.4, 1:1 model. The protocol: (§3) The affinity of the peptide obtained in the above-described Example 1(2) for the Fc region and Fab region of anti-RSV monoclonal antibody was evaluated using a biosensor Biacore3000 (manufactured by GE Healthcare Bioscience) utilizing surface plasmon resonance. In the present Example, the IgG-Fc or IgG-Fab obtained in the above-described Example 2(1) was immobilized on a sensor tip, and the peptide was flown on the tip to detect the interaction between the two. The IgG-Fab or IgG-Fc was immobilized on a sensor tip CM5 by amine coupling method using N-hydroxysuccinimide (NHS) and N-ethyl-N′-(3-dimethylaminopropyl)carbodiimide hydrochloride (EDC), and ethanolamine was used for blocking. All of the sensor tip and reagents for immobilization was manufactured by GE Healthcare Bioscience. The IgG-Fab solution was diluted to about 10 times using a buffer for immobilization (10 mM AcOH—AcONa, pH 4.5), and the IgG-Fab was immobilized on the sensor tip in accordance with the protocol attached to the Biacore 3000. In addition, a reference cell as negative control was also prepared by activating another flow cell on the tip with EDC/NHS and then immobilizing ethanolamine only. Peptide solutions having concentrations of 16 nM, 64 nM or 256 nM were prepared using a running buffer (20 mM NaH₂PO₄—Na₂HPO₄, 150 mM NaCl, 0.005% P-20, pH 7.4). Each peptide solution was added to the sensor tip in a flow rate of 40 μL/min for 1 minute. Bonding response curves at the time of addition (association phase, 1 minute) and after the addition (dissociation phase, 1 minute) were sequentially obtained at a measurement temperature of 25° C. After each measurement, about 20 mM NaOH was added for wash.

For experiment [4], the target named is T4, IgG-Fab derived from anti-RSV monoclonal antibody (Palivizumab).
T4 construct: Humanized monoclonal IgG fragmented with papain; Immobilized on a CM5 sensor tip; also called Anti-RSV antibody - Fab; Synagis Fab fragment
As to the kind of experiment: SPR Biacore 3000, Fab immobilized on CM5, peptide flown, 25° C., pH 7.4, 1:1 model. The protocol:
as §3

B1: immunoglobulin G-binding peptide having the amino acid sequence of SEQ ID NO: 2 (designed binder)
chain: GPLGSTTYKLILNGKTLTGYTTAIAADAATAEIVLKQFANDNGIDGEWTYDDATKTFTVTE
notes: Expressed as a GST fusion in E. coli; GST was cleaved off with PreScission Protease before the assay; also called SpG mutant
On to B1, for which the Ka in experiment [1] turned out to be 6.5e+07 M⁻¹; in experiment [2], 4e+07 M⁻¹; in experiment [3], 3.5e+06 M⁻¹; in experiment [4] it was 2e+07 M⁻¹. For the same molecule, the koff in experiment [1] amounted to 0.039 s⁻¹; in experiment [2], 0.01 s⁻¹; in experiment [3] it was 0.028 s⁻¹; in experiment [4], 0.003 s⁻¹. The on-rate constant (kon) was determined as 252000 M⁻¹ s⁻¹ in experiment [1], 413000 M⁻¹ s⁻¹ in experiment [2], 97000 M⁻¹ s⁻¹ in experiment [3] and 66000 M⁻¹ s⁻¹ in experiment [4].

By koff is commonly meant the rate constant with which the complex falls apart. What is called kon is the second-order rate constant of association. A high value points to fast association.

The values above are taken from patent US20180044401A1 (KANEKA, published 2018).
